± gives the half width of the 95% confidence interval.

Data set [1] in a line: folding stability dG unfold (combined trypsin and chymotrypsin); higher = more stable. The method, boiled down:
(§1)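 Designed mini-proteins with no cysteine and under 80 residues were kept only if AlphaFold2 dimer inter-PAE was above 15. In a PA-tagged cDNA display construct, they were digested with trypsin and chymotrypsin and then sequenced. K50 was inferred by Bayesian fitting of counts, and unfolding free energy was derived per protease or combined against a sequence-predicted unfolded-state K50 and a shared folded-state K50.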

Data set [2] can be described thus: folding stability dG unfold from chymotrypsin proteolysis; higher = more stable. The method, boiled down: as §1
A short description of data set [3]: folding stability dG unfold from trypsin proteolysis; higher = more stable. The method, boiled down: as §1

On to “SAGMKIEIEIVKVEVKEVNGKKVIKVEIKVKVSAEELGLSEEELKEKLEEEVEELARELAEKLNVEVVPSAG [r5_333_TrROS_Hall]”, for which the “folding stability dG unfold” value in data set [1] was determined as 2.21 ± 0.51 kcal/mol; in data set [2], 1.36 ± 0.1 kcal/mol; in data set [3], 2.88 ± 0.36 kcal/mol.

On to “SAGMKIENAEITEIKVTVNEDGTVTVEMTVRLKNGYVVKVTMTFKNGKLEIKPEKVEVYKVKLPEEELSAGG [r19_84_TrROS_Hall]”, for which the “folding stability dG unfold” value in data set [1] is 2.09 ± 0.41 kcal/mol; in data set [2] it was 2.28 ± 0.22 kcal/mol; in data set [3], 1.68 ± 0.098 kcal/mol.

Regarding “SAGMKIEPTKDYVLITVNGPEKALETIKKLKELIPNPEILDIKPHPHPNGENPWTIIIPTKNIPPEVLFSAG [r5_857_TrMRF]”, the “folding stability dG unfold” value came to 0.68 ± 0.15 kcal/mol in data set [1], 0.519 ± 0.14 kcal/mol in data set [2] and 0.655 ± 0.042 kcal/mol in data set [3].

On to “SAGMKIETIPEVDYVVIEIDAKSLEEAIETLKYLTEKLGLKKVIAVADPTSNKVIAIAEVGNPEALEKLSAG [r5_598_TrMRF]”, for which the “folding stability dG unfold” value amounted to 1.96 ± 0.1 kcal/mol in data set [1], 1.56 ± 0.057 kcal/mol in data set [2] and 2.33 ± 0.07 kcal/mol in data set [3].

Regarding “SAGMKIEVKKKKDGKLEVEIEVKTKDGRTIRVKIYYDKKTKKFYIVEIEAESEEEKKKAEELLKKLLKSSAG [r5_266_TrROS_Hall]”, the “folding stability dG unfold” value is 3.42 ± 0.12 kcal/mol in data set [1], 3.62 ± 0.045 kcal/mol in data set [2] and 2.83 ± 0.14 kcal/mol in data set [3].

As for “SAGMKIKIKLENGEEIEIDKENPVIKIKNKETGEEVELVFDPENEDEIYIFNKKTKKLIAKFKITEIEPSAG [r5_761_TrROS_Hall]”, the “folding stability dG unfold” value was 2.62 ± 0.34 kcal/mol in data set [1], 3.21 ± 0.084 kcal/mol in data set [2] and 1.87 ± 0.092 kcal/mol in data set [3].

Consider “SAGMKIKVLLVVKADPEELEKLEEILEKIKEESDIKKIEPLAYFPNTGIAVVLVEADPEAFEKILEAAGSAG [r5_193_TrMRF]”, for which the “folding stability dG unfold” value in data set [1] worked out at 2.29 ± 0.095 kcal/mol; in data set [2] it was 2.58 ± 0.03 kcal/mol; in data set [3], 1.78 ± 0.032 kcal/mol.

Regarding “SAGMKIVVTLPDGWTATSDPSTGLITITDPKTGEPLLGKIPSSEPNKVTLYDPNNGKPLRELDIDEVEGSAG [r5_761_JUSTAS]”, the “folding stability dG unfold” value in data set [1] was determined as 0.581 ± 0.053 kcal/mol; in data set [2], 0.748 ± 0.023 kcal/mol; in data set [3] it was 0.287 ± 0.026 kcal/mol.

For the sequence “SAGMKKGDKFTVEFDLDPETRAEVEALLAAPGFAAEFDPSTGRLTLTLPSEIIDEVKKFPHIKKITKISAGG [r19_212_JUSTAS]”, the “folding stability dG unfold” value was 1.68 ± 0.083 kcal/mol in data set [1], 1.79 ± 0.044 kcal/mol in data set [2] and 1.05 ± 0.068 kcal/mol in data set [3].

“SAGMKKKLYSGEIKEIEEALEKGLSLEEIEEIFSKGANGSLELEEENKKIYIFALEDKKAFLLVEYNPESAG [r5_343_TrMRF]”: the results for the “folding stability dG unfold” value in data set [1], in data set [2] and in data set [3] were 1.1 ± 0.26 kcal/mol, 1.46 ± 0.19 kcal/mol and 0.441 ± 0.14 kcal/mol, respectively.

“SAGMKPGETITIENLPEGAIIYNKNGEKVEKVKEVKVTVEDGKITIEVKLEDGSTKTFTVPLEDLKIVPSAG [r5_850_TrROS_Hall]”: the “folding stability dG unfold” value in data set [1] is 2.31 ± 0.14 kcal/mol; in data set [2] it was 3.05 ± 0.058 kcal/mol; in data set [3], 1.61 ± 0.12 kcal/mol.

“SAGMKVIIGKNKIYVLVKLPNGEKKLFEIDIENIEKIKKIEIDIGKGYAKIGSKDNIPIYTKIKKVYNVSAG [r5_388_TrMRF]”: the “folding stability dG unfold” value in data set [1] turned out to be 2.6 ± 0.14 kcal/mol; in data set [2], 2.82 ± 0.11 kcal/mol; in data set [3], 2.2 ± 0.058 kcal/mol.

For the sequence “SAGMKVIKVKGEEELEKALREEAEKKGLSEEEMKEFIEEAKKRTKIEKEGDEYYVTIEPEGKPVPGNKLSAG [r5_717_JUSTAS]”, the figures for the “folding stability dG unfold” value in data set [1], in data set [2] and in data set [3] were 0.474 ± 0.37 kcal/mol, -0.879 ± 0.52 kcal/mol and 1.04 ± 0.088 kcal/mol, respectively.

With “SAGMKVLKFKSKEELLEAIDKSPEPVLVINKKTGKKEVLSKEELKKKLKPGDEIEIVLLKDLSPEELKKSAG [r5_677_TrROS_Hall]”, the entries for the “folding stability dG unfold” value in data set [1], in data set [2] and in data set [3] were 1.4 ± 0.14 kcal/mol, 1.78 ± 0.14 kcal/mol and 1.05 ± 0.097 kcal/mol, respectively.

The values are drawn from the supplement of paper PMC12764529.
